Target: integrin αvβ3 on human tumor cells (ECV304 bladder carcinoma, M21 melanoma) (human, UniProt P06756 31-1048; P05106 27-788)
Assay: cell-based or functional assay

Sequence of integrin αvβ3 on human tumor cells (ECV304 bladder carcinoma, M21 melanoma) (P06756 31-1048, chain 1 of 2): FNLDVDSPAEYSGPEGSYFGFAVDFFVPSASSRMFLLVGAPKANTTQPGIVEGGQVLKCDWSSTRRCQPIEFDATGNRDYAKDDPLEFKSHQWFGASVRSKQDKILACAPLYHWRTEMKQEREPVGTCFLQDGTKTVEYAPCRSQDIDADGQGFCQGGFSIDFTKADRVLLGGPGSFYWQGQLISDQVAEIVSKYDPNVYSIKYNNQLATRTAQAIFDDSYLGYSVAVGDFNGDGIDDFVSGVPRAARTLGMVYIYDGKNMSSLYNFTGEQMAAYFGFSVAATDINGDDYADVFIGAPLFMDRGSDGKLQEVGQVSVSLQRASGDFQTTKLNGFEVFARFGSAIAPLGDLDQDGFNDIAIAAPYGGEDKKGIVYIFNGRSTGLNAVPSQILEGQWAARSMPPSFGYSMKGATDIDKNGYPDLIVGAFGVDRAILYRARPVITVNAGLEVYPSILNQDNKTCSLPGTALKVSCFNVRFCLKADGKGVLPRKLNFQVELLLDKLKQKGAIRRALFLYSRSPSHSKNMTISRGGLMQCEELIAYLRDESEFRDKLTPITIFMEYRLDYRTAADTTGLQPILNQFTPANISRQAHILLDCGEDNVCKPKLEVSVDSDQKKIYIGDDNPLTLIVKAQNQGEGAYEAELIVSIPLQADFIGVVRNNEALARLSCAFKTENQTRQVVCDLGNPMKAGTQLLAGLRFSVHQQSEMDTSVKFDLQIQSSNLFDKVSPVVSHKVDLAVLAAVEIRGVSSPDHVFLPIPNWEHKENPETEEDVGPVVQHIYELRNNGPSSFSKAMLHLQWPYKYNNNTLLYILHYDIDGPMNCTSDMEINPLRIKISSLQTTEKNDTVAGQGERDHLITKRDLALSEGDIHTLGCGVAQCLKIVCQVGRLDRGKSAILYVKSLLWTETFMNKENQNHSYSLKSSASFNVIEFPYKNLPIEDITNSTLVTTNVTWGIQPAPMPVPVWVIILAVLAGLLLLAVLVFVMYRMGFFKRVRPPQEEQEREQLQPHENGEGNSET
Sequence of integrin αvβ3 on human tumor cells (ECV304 bladder carcinoma, M21 melanoma) (P05106 27-788, chain 2 of 2): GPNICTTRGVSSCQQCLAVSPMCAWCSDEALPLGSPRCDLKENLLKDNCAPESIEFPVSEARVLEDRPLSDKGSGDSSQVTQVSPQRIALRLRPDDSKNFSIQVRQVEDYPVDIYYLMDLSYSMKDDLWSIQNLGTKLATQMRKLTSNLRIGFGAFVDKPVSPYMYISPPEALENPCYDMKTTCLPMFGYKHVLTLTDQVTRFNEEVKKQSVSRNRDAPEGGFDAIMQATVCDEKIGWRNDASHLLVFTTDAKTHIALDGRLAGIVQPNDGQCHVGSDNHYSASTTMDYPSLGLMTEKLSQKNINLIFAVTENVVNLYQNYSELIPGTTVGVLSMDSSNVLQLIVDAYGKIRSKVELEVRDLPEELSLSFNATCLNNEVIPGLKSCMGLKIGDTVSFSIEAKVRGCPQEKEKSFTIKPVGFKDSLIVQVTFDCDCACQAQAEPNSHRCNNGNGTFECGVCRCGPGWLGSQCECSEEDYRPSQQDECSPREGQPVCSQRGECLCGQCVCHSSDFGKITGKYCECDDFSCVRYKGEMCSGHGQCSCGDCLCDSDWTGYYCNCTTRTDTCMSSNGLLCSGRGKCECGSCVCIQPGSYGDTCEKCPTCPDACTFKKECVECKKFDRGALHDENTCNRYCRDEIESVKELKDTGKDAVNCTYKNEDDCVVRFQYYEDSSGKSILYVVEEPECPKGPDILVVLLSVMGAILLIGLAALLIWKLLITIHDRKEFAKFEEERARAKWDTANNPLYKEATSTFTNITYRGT

B1: Mab LM609 (anti-αvβ3) (antibody, V domains shown)
VH: EVQLVESGGGLVKPGRSLRLSCAASGFAFSSYDMSWVRQIPEKRLEWVAKVSSGGGSTYYLDTVQGRFTISRDNAKNTLYLQMSSLNSEDTAMYYCARHNYGSFAYWGQGTLVTVSA
VL: DIVLTQSPATLSVTPGDSVSLSCQASQSISNHLHWYQQKSHESPRLLIKYRSQSISGIPSRFSGSGSGTDFALSINSVETEDFGMYFCQQSGSWPHTFGGGTKLEIK
- relative level of IGFBP-4 RNA (real time PCR) in M21 cells on denatured collagen type-IV: ~8 fold
- relative level of TSP-1 RNA (real time PCR) in M21 cells on denatured collagen type-IV: ~8 fold

— patent publication US20060216236A1 (published 2006)
